Target: LexA repressor (UniProt P0A7C2 P0A7C2:1-202)
Test: operator region protected from integration by wild type IN; 5 mM MgCl2, 37 C
Settings: chain copies: 2 (stated)
Experimental: Assay for integration into pBR322 targets containing lexA operators. Integration of the model viral DNA duplex into a heterologous target was measured using a PCR-based assay similar to that described by Pryciak et al., EMBO J. 11: 291–303 (1992). The target DNAs, pBR322 derivatives, contain the lexA operator region. To measure integration into a specific region, a "target" PCR primer was selected, which was ca. 250 bp from the lexA operator region. The "viral" primer was identical to the 16nt DNA strand to be joined to the target DNA. The length of the PCR product corresponds to the distance from the target primer site to the integration site. Integration assays contained approximately 0.2 pmoles of PstI linerarized plasmid target DNA, 35 pmoles of IN or IN-lexA fusion protein and 0.1 pmol of viral DNA ends (model substrate). The reaction mixture contained 20 mM Tris-HCl and 5 mM MgCl_2. The viral DNA substrate was a 18 mer/16 mer duplex with a recessed end. This corresponds to a processed viral DNA end, as described previously (Katzman et al., 1989, supra). […] Recovery of target DNA was monitored by agarose gel electrophoresis. […] Products were analyzed on 7% acrylamide-urea sequencing gels. Fragment sizes were determined using a ØX174HaeIII digest and a 10 bp ladder (Bethesda Research Labs).

Sequence of LexA repressor (P0A7C2 whole entry, one chain of several): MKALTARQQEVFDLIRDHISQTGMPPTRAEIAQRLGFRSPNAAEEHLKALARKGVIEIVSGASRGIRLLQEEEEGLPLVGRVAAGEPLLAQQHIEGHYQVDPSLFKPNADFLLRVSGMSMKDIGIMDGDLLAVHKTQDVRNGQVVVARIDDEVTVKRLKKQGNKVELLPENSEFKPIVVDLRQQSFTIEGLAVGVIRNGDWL

B1: tandem lexA operator segment (in pBR711-2) (dsDNA)
DNA 1: GGGGTCGACATTACTGTATATATATACAGCATAACTGTATATATATACAGTATAGGATCCGGG
DNA 2: CCCGGATCCTATACTGTATATATATACAGTTATGCTGTATATATATACAGTAATGTCGACCCC
binding result: binds
